Usually Kd stands for a measure of binding affinity in units of concentration. In general, koff refers to the rate constant with which the complex falls apart. Usually kon stands for a measure of how fast the partners come together.

The target in test [1] is T1, human mesothelin (recombinant, soluble) (human, UniProt Q13421 296-598). The test is described as follows: SPR BIAcore, captured mAb, mesothelin analyte. A general note: SPR reads the build-up and loss of mass on a sensor chip optically.
T1 sequence (Q13421 other isoform, or with tags, fused parts or gaps): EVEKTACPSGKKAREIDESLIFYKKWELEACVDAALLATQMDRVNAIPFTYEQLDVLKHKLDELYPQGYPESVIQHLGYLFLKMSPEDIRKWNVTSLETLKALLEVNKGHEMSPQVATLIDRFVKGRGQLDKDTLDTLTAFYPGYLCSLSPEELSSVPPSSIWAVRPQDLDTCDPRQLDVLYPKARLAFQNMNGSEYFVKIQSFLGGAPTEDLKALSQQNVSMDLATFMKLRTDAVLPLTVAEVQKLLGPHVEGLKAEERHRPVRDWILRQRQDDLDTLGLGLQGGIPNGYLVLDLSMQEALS
Test [2] deals with T2, rat mesothelin (rat, UniProt Q9ERA7 298-600, limits assumed).
T2 sequence (looked up): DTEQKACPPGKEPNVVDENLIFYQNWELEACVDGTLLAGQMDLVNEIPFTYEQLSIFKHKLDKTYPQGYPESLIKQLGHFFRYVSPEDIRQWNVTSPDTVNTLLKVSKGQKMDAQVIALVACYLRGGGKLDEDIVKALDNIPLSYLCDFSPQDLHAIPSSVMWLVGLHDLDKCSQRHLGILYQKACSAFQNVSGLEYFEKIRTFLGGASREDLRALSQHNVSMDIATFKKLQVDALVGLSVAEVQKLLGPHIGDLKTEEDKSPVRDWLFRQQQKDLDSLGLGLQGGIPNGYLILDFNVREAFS
The test is described as follows: SPR BIAcore, captured mAb, mesothelin analyte. As for the experimental part: (§1) Binding affinity: Binding measurements were performed in HBS-P+ buffer on a BIAcore T-100 instrument. Antibodies were diluted to 1 μg/mL in HBS-P+. Samples were centrifuged at 14,000×g for 5 min at room temperature and then supernatants were transferred to a new 1.5 mL BIAcore tube and capped. […] Anti-human antibody capture chip was prepared according to the manufacturer's protocol using a CMS chip with immobilization wizard. Final capture antibody levels were 8000-9000RU, in HBS-P+.
(§2) Antibodies were captured on flow cells 2-4 by sequential injections of individual ligand solutions for 90 sec at 10 μL/min. Analyte injection was done in a single-cycle kinetics manner by sequential injections of analyte solutions from low to high concentration for 240 sec each at 30 μL/min. Detection was 2-1, 3-1, 4-1. Double-referencing was performed by a sequence of identical ligand capture injections, followed by 5 buffer-only injections for 240 sec each, dissociation for 1800 sec, and regeneration as above. All ligands were analyzed for binding to mesothelin in duplicate. Kinetic analysis was performed using BIAEvaluations software using a 1:1 Langmuir fitting model. On-rate, off-rate, and affinity constants were averaged from duplicate runs.

Test [3] addresses T3, human mesothelin (recombinant, soluble) (human, UniProt Q13421 296-598, limits assumed).
T3 construct: Analyte in BIAcore, coat in ELISA (CHO-MT40 mesothelin), biotinylated on Octet tips; also called MSLN; CHO-MT40 mesothelin
The test is described as follows: SPR BIAcore, run 4. As for the experimental part:
as §2, with “Anti-mesothelin antibody binding affinity to mesothelin was measured by BIAcore (BIAcore T-100, GE healthcare, #1426075), using a series S CMS chip. Antibody concentrations were adjusted to 1 μg/mL and mesothelin (50 μg) to 100 nM in 1×HBS-P+ buffer (GE Healthcare). Anti-human antibody capture chip was prepared according to the manufacturer's protocol using a CMS chip with immobilization wizard. Final capture antibody levels were 8000-9000 RU, in HBS-P+. Chip was prepared for assay with five cycles of 300 sec buffer injection followed by 30 sec regeneration, all at 30 μL/min across all four flow cells. Antibodies” for “Antibodies”

The target of test [4] is cynomolgus monkey mesothelin (cynomolgus monkey). The experiment in a line: SPR BIAcore T-100, captured mAb, mesothelin analyte, single-cycle kinetics. As for the experimental part: as §1, §2
In test [5] the target is T3, human mesothelin (recombinant, soluble). The test is described as follows: SPR BIAcore, affinity against anetumab as reference. On the procedure:
as §1, §2

Test [6] shares this target. The experiment in a line: SPR BIAcore T-100, captured mAb, mesothelin 0.16-100 nM, single-cycle kinetics. As for the experimental part: as §1, §2
The target of test [7] is T1, human mesothelin (recombinant, soluble). The test is described as follows: SPR BIAcore, parental mAb captured, mesothelin analyte.
Test [8] has as its target human mesothelin expressed on cells (human, UniProt Q13421 37-598). The test is described as follows: cell-based or functional assay.

Chain of human mesothelin expressed on cells (Q13421 other isoform, or with tags, fused parts or gaps): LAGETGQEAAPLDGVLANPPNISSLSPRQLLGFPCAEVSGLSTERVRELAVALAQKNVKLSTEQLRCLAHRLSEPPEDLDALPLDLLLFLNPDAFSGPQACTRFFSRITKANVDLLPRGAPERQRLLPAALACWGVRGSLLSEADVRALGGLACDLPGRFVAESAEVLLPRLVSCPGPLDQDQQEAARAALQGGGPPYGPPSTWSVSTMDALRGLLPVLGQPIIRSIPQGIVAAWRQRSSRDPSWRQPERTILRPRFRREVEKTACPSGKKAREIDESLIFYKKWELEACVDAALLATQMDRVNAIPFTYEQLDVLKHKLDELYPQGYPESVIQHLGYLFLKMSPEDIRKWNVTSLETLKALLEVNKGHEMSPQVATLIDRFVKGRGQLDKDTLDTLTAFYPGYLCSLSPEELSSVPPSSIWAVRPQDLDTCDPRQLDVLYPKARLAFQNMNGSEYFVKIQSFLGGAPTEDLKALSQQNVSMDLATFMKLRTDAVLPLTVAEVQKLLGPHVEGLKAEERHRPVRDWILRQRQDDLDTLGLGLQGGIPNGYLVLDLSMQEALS

B1: 237N18 (rabbit-human chimeric anti-human mesothelin antibody) (antibody, V domains shown)
VH: QSLEESGGRLVAPGTPLTLTCTVSGFSLSSYHMSWVRQAPGEGLEWIGGITAMSRTYYASWAKGRFTISKTSTTVHLKITSPTTEDTATYFCAREPGFVSNIWGPGTLVTVSL
VL: AVVLTQTASPVSGVVGGTVTIKCQASQNIYSNLAWYQQKPGQRPKLLMYDASTLASGVPSRFKGSGSGTQFTLTISDLECADAATYYCQSISSVDNNVFGGGTEVVVK
B1: in test [1], the dissociation constant (Kd) is 3.38 nM, the koff turned out to be 0.00428 s⁻¹ and the kon turned out to be 1.27e+06 M⁻¹ s⁻¹.

B2: 345A12-HC15-LC4 (antibody, human IgG1, kappa, V domains shown)
VH: QVQLVESGGGVVQPGRSLRLSCAASGIDLSSYAMSWVRQAPGKGLEWIGVIDISGNRFYADWVKGRFTISRDNSKNTLYLQMSSLRAEDTAVYYCARVDSRAWGPFNLWGQGTLVTVSS
VL: DYQMTQSPSSLSASVGDRVTITCQASQSIFSYLAWYQQKPGKAPKLLIYDASDLASGVPSRFSGSGSGTDFTLTISSLQCEDAATYYCQQGYTRSDVDNAFGGGTKVEIKR
notes: Humanized rabbit antibody, human IgG1/kappa, unpaired Cys80 in the light chain; also called zu345A12-HC15-LC4
For the molecule B2, in test [2], the binding result is “no binding (tested: 100 nM highest analyte concentration)”. Further, the results for the Kd in test [3], in test [4] and in test [6] were 0.0779 nM, 88.6 nM and 0.195 nM, respectively. Further, the results for the koff in test [3], in test [4] and in test [6] were 0.000112 s⁻¹, 0.000751 s⁻¹ and 0.000285 s⁻¹, respectively. In addition, the kon in test [3] came out at 1.44e+06 M⁻¹ s⁻¹; in test [4], 10500 M⁻¹ s⁻¹; in test [6] it was 1.46e+06 M⁻¹ s⁻¹. Also, the “fold higher affinity than anetumab” value in test [5] was 40 fold.

B3: 201C15 zu (humanized, CDR-grafted HC1-LC1) (antibody, V domains shown)
VH: QVQLVESGGGLVQPGGSLRLSCSASGIDLSSYAMGWVRQAPGKGLEYIGTINIGGRVYYASWAKGRFTISRDNSKNTLYLQMNSLRAEDTAVYYCARYYNGGSYDIWGQGTLVTVSS
VL: DIQMTQSPSTLSASVGDRVTITCQASESIYRVLAWYQQKPGKAPKLLIYDTSTLASGVPSRFSGSGSGTEFTLTISSLQCDDAATYYCQGGYYADSYGIAFGGGTKVEIKR
With B3, in test [7], the Kd stood at 4.2 nM, the koff came out at 0.0011 s⁻¹ and the on-rate constant (kon) is 310000 M⁻¹ s⁻¹.

B4: Xi-383I18(AuF) (antibody, V domains shown)
VH: SQSVEESGGRLVTPGTPLTLTCTVSGFSLSSYAMGWVRQAPGEGLEWIGTISTGGITYYASWAKGRFTISKTSTTVDLKITSPTTEDTATYFCARVGSSGYLFYFFNLWGQGTLVTVSS
VL: VFELTQTPSPVSAAVGGTVTIRCQASQNIKSYLAWYQQKPGQPPKLLIYEASILASGVSSRFKGSGSGTEFTLTISDLECADAATYYCQSYYAASSNAFGGGTEVVVK
As for B4, in test [1], the Kd is 0.28 nM, the koff worked out at 0.000281 s⁻¹ and the kon was 1.01e+06 M⁻¹ s⁻¹.

B5: 346C6 zu (humanized, CDR-grafted HC1-LC1) (antibody, V domains shown)
VH: EVQLVESGGGLVQPGGSLRLSCAASGFSLSSYAMIWVRQAPGKGLEWIGTISTGGITYYASWAKGRFTISRDNSKNTLYLQMNSLRAEDTAVYYCARGGYAASSAYYLPYYFDLWGQGTLVTVSS
VL: DIQMTQSPSSLSASVGDRVTITCQSSQSVYNNNNLAWYQQKPGKVPKLLIYLASTLASGVPSRFSGSGSGTDFTLTISSLQCEDAATYYCLGGCDDDADTFAFGGGTKVEIKR
With B5, in test [7], the Kd came out at 8.9 nM, the koff stood at 0.093 s⁻¹ and the kon came to 1.33e+07 M⁻¹ s⁻¹.

B6: 111B10 zu (humanized, CDR-grafted HC1-LC1) (antibody, V domains shown)
VH: EVQLVESGGGLVQPGGSLRLSCAASGFSLNNYAMSWVRQAPGKGLEWIGSISTGGLAFYANWAKGRFTISRDNSKNTLYLQMNSLRAEDTAVYYCARNGGGSYIFYYFDLWGQGTLVTVSS
VL: DIQMTQSPSSLSASVGDRVTITCQASQSISSYLSWYQQKPGKAPKLLIYSASTLASGVPSRFSGSGSGTDFTLTISSLQCEDAATYYCQSYYDIGTSTFGGGTKVEIKR
Turning to B6, in test [7], the Kd was determined as 6.5 nM, the koff stood at 0.003 s⁻¹ and the kon was determined as 510000 M⁻¹ s⁻¹.

B7: BAY 94-9343 (anetumab ravtansine) (antibody, human IgG1, lambda, V domains shown)
VH: QVELVQSGAEVKKPGESLKISCKGSGYSFTSYWIGWVRQAPGKGLEWMGIIDPGDSRTRYSPSFQGQVTISADKSISTAYLQWSSLKASDTAMYYCARGQLYGGTYMDGWGQGTLVTVSS
VL: DIALTQPASVSGSPGQSITISCTGTSSDIGGYNSVSWYQQHPGKAPKLMIYGVNNRPSGVSNRFSGSKSGNTASLTISGLQAEDEADYYCSSYDIESATPVFGGGTKLTVLG
modifications: SPDB-DM4 on lysines, DAR 3.7 for the whole antibody, positions not given
Consider B7, for which, in test [8], the “EC50 (read off the curve): % killing of NCI-N87 cells, BAY 94-9343 alone” value was about 0.8 nM and the “EC50 (read off the curve): % killing of NCI-N87 cells, BAY 94-9343 with 3 uM unconjugated anetumab” value was about 0.8 nM.

B8: anetumab (antibody, human IgG1, lambda, V domains shown)
VH: B7 VH
VL: B7 VL
Regarding B8, the binding result in test [2] is “no binding (tested: 100 nM highest analyte concentration)”. Also, in test [6], the Kd was 7.26 nM, the koff amounted to 0.00112 s⁻¹ and the kon is 168000 M⁻¹ s⁻¹.

B9: 33O11 (rabbit-human chimeric anti-human mesothelin antibody) (antibody, V domains shown)
VH: QSVEESGGRLVTPGTPLTLTCTVSGISLSSDAISWVRQAPGKGLEYIGIINGGGNTYYASWAKGRFTISKTSTTVDLKITSPTTEDTATYFCARGIQHGGGNSDYYYYGMDLWGPGTLVTVSS
VL: EVLMTQTPSSVSAAVGDTVTIKCQASQSISSVLSWYQQKPGQPPKLLIYLASTLASGVPSRFSGSRSGTEFTLTISDLECDDAATYYCQTNYGTSSSNYGFAFGGGTEVVVK
For B9, in test [1], the Kd stood at 0.335 nM, the koff amounted to 0.000668 s⁻¹ and the kon was determined as 1.99e+06 M⁻¹ s⁻¹.

The values are drawn from patent US20210238304A1 (EISAI R AND D MANAGEMENT, published 2021).
